Reference: publication PMC5109244

Target: T1, short mouse DNGR-1 ECD (extracellular domain of the short isoform of mouse DNGR-1) (mouse), Q8BRU4
T1 chain: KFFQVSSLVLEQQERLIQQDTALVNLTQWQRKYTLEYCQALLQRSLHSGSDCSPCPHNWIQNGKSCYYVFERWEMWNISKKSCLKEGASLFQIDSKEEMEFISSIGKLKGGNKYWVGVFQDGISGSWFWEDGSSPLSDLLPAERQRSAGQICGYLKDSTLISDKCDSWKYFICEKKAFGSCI
Assay: non-reducing SDS-PAGE and Western blot; supernatants of 293F cells with FLAG-tagged ECD proteins, Laemmli buffer without reducing agent, HRP-conjugated anti-FLAG detection
Settings: remark: other sources report otherwise

stoichiometry N: 2
B1: short mouse DNGR-1 ECD (extracellular domain of the short isoform of mouse DNGR-1), Q8BRU4 57-238 (domain or fragment)
chain: KFFQVSSLVLEQQERLIQQDTALVNLTQWQRKYTLEYCQALLQRSLHSGSDCSPCPHNWIQNGKSCYYVFERWEMWNISKKSCLKEGASLFQIDSKEEMEFISSIGKLKGGNKYWVGVFQDGISGSWFWEDGSSPLSDLLPAERQRSAGQICGYLKDSTLISDKCDSWKYFICEKKAFGSCI
modifications: here or on the partner: glycosylated (mobility augmented by PNGase F); glycosylated (mobility augmented by PNGase F)
